Results as given in publication PMC3137072.
Values belong to the substance of their own block, whether it stands above or below them.

Columns and labels:
[1] = target: microtubules (polymerized tubulin) (UniProt Q6B856)
[2] = target: filamentous actin (F-actin), non-muscle actin (UniProt P60709)

Chain of microtubules (polymerized tubulin) (Q6B856 whole entry, looked up): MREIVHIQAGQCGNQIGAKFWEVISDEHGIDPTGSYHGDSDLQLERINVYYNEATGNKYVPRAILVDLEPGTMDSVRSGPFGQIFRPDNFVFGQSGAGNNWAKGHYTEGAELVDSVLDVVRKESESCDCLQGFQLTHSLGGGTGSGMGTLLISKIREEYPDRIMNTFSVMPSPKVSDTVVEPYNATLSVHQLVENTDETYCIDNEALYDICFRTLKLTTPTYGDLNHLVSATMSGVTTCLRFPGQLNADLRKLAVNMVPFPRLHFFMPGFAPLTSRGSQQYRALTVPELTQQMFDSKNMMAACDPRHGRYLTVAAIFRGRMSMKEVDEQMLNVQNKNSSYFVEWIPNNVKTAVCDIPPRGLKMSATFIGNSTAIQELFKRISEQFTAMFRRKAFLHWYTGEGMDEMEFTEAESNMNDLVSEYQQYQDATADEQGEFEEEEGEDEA
Chain of G2L3-CH (calponin homology domain of GAS2-like 3) (Q86XJ1 48-168): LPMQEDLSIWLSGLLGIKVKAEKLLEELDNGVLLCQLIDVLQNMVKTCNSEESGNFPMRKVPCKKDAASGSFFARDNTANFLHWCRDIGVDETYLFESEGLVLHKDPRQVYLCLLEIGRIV
Chain of G2L3-ΔGAR (GAS2-like 3 lacking the GAR domain), GFP-tagged (Q86XJ1 whole entry, stated change not applied, the tested form may be a part): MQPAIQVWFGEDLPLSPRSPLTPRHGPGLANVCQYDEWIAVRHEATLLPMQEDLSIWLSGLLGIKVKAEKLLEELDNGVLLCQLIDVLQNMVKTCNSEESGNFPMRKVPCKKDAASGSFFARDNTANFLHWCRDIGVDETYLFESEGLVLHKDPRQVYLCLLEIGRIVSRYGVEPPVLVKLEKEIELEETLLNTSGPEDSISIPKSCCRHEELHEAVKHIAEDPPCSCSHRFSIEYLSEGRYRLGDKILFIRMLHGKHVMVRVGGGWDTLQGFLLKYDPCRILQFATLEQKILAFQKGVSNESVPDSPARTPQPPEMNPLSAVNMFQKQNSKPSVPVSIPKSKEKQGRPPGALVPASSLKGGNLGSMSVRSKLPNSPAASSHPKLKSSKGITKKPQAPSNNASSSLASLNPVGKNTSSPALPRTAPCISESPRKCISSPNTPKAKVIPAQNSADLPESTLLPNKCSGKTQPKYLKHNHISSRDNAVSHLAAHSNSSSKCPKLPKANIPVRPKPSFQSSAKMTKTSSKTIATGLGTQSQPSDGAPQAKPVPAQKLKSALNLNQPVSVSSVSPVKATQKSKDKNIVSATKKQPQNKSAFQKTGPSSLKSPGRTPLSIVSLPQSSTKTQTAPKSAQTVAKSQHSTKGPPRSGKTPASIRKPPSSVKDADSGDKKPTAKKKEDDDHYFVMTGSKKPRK

FRAP, t½ of recovery of GFP-tagged G2L3-C-term on MTs in NIH3T3 cells [1]: 3.9 s
Substance: G2L3-C-term (C terminus of GAS2-like 3) (domain or fragment)

FRAP, t½ of recovery of GFP-tagged G2L3-CH on actin filaments in NIH3T3 cells [2]: 28.5 s
Substance: G2L3-CH (calponin homology domain of GAS2-like 3) (from UniProt Q86XJ1 48-168) (domain or fragment)

FRAP, t½ of recovery of GFP-tagged G2L3-ΔCH on MTs in NIH3T3 cells [1]: 15.3 s
Substance: G2L3-ΔCH (GAS2-like 3 lacking the CH domain), GFP-tagged (domain or fragment)

FRAP, t½ of recovery of GFP-tagged G2L3-ΔGAR on MTs in NIH3T3 cells [1]: 6 s
Substance: G2L3-ΔGAR (GAS2-like 3 lacking the GAR domain), GFP-tagged (from UniProt Q86XJ1 1-694) (natural protein)
